Source: the RNAGym collection of RNA variant scans (doi:10.1021/acssynbio.7b00057)

B1: Pistol ribozyme (parent)
chain: GGGUCGUUGUUCCAUAAUCGCGUGGAUAUGGCACGCAAGUUUCUACCGGGCACCGUAAAUGUCCGACUGGAGCCGUUCGGGCGGCUAUAAACAGACCUCAGGCCCGAAGCGUGGCGGCACCUGCCGCCGGUGGUAAAAAAGAUCGGAAGAGCACACGUCU

Variants of: B1
Assay: aptazyme ON/OFF ratio, guanine; higher = stronger switching; co-transcriptional cleavage with and without guanine

First: U8G U10A U11G C12A
Second: U7A G9C U10A C12A
The “aptazyme ON/OFF ratio” value of the first is higher: 1.12 for the first, 1.11 for the second.

Compared with U7A U8C G9U U10A U11C, U8A G9C U10A U11C C12U C13U is higher in “aptazyme ON/OFF ratio” value: 1.01 for the first, 1.09 for the second.

Going from U8A G9U U11G C12G C13A to U7G U8G G9C U10G U11C C13A, the “aptazyme ON/OFF ratio” value falls from 1.25 to 1.09.

Compared with U7A U8G G9C U10C U11G C12U C13A, U8A G9U U10C U11C C12U C13A is lower in “aptazyme ON/OFF ratio” value: 1.15 for the first, 1.04 for the second.

Compared with U7C U8G G9C U11A C12G, U7A U8G G9U U11G C12A C13U is higher in “aptazyme ON/OFF ratio” value: 1.16 for the first, 1.2 for the second.

First: U7G U8G U11A C12A
Second: U7C U8C G9C U10G C13U
The “aptazyme ON/OFF ratio” value of the first is higher: 1.36 for the first, 1.17 for the second.

First: U7G U8C U10G U11G C12U
Second: U8C U11A C12U C13U
The “aptazyme ON/OFF ratio” value of the first is higher: 1.43 for the first, 1.13 for the second.

Going from U7A U8C G9A U10C U11G C12U C13A to U8G G9U U10G U11A C12A, the “aptazyme ON/OFF ratio” value falls from 1.29 to 1.08.

Compared with U7G U8G U10C U11A C12A C13A, U7C U8C G9A C12U C13U is higher in “aptazyme ON/OFF ratio” value: 1.08 for the first, 1.26 for the second.

Compared with U7C U8A G9A U10A U11A C12G C13U, U7G U8C G9A U11C C12U C13G is lower in “aptazyme ON/OFF ratio” value: 1.22 for the first, 1.12 for the second.

Going from U7A U8A G9U U10A U11C C12A to U7G U8C G9A U10A U11A C12U C13G, the “aptazyme ON/OFF ratio” value falls from 1.22 to 1.15.

Compared with U8G G9C U10G U11A C12U C13A, G9C U11C is higher in “aptazyme ON/OFF ratio” value: 1.16 for the first, 1.18 for the second.

Compared with U7A U8A G9U U10C U11G C12U C13A, U7G G9A U10A C12A C13A is lower in “aptazyme ON/OFF ratio” value: 1.15 for the first, 1.06 for the second.

First: U7A U8C G9C U10C U11A C12A
Second: U8G G9C U10A U11A C12G
The “aptazyme ON/OFF ratio” value of the first is lower: 1.07 for the first, 1.16 for the second.

Going from U7C U8A G9A C12A C13A to U7G G9C C12G C13U, the “aptazyme ON/OFF ratio” value rises from 1.21 to 1.43.

Compared with U7C U8C U11C C12G, U7C U8C G9C U10G U11C C12U C13U is higher in “aptazyme ON/OFF ratio” value: 1.16 for the first, 1.17 for the second.

G9C U10C U11G C12G C13U and U7G U8G G9U U10G U11C C12G are the same in “aptazyme ON/OFF ratio” value: 1.11 for the first, 1.11 for the second.

Going from U8G G9U U10C to U7C U8C G9C U10A C12A, the “aptazyme ON/OFF ratio” value falls from 1.51 to 1.11.

Going from G9A U10G U11A C12A C13A to U8G G9A C12G C13G, the “aptazyme ON/OFF ratio” value rises from 1.08 to 1.29.

First: U7G U8A U10C U11C C12A C13G
Second: U7C G9C U11A C13A
The “aptazyme ON/OFF ratio” value of the first is higher: 1.16 for the first, 1.03 for the second.

First: U7A U8A G9U U10A C12U C13U
Second: U7G U8A G9C U10C U11G C12U C13U
The “aptazyme ON/OFF ratio” value of the first is higher: 1.13 for the first, 1.04 for the second.

Going from U7C G9C U10G U11A C13G to U7A G9C U11A C12A, the “aptazyme ON/OFF ratio” value rises from 1.05 to 1.07.

First: U7C U8G U10G U11C C12U
Second: U7C G9U U10G U11C C12U C13U
The “aptazyme ON/OFF ratio” value of the first is lower: 1.16 for the first, 1.19 for the second.

First: U8A U10A C12A C13G
Second: U7A U8A G9C U10C C12G C13U
The “aptazyme ON/OFF ratio” value of the first is higher: 1.08 for the first, 1.06 for the second.

Going from U7G U8C U10G U11G C12A C13G to U8A U11A C12A C13A, the “aptazyme ON/OFF ratio” value rises from 1.1 to 1.15.

First: U7G G9U C12U C13U
Second: U7G G9A U11A
The “aptazyme ON/OFF ratio” value of the first is lower: 1.18 for the first, 2.46 for the second.

First: G9C U10C U11C C12U C13G
Second: U8G U11A C12U C13U
The “aptazyme ON/OFF ratio” value of the first is lower: 1.01 for the first, 1.33 for the second.

First: U7G U8G U10A U11C
Second: U10A U11A C12U
The “aptazyme ON/OFF ratio” value of the first is lower: 1.09 for the first, 1.64 for the second.

Going from U7G U8G U11C C12A C13G to U8C U11C C12A C13A, the “aptazyme ON/OFF ratio” value rises from 1.15 to 1.24.

Compared with U8C U10G U11C C12G C13U, U7G U8G U10C U11A C12U C13U is lower in “aptazyme ON/OFF ratio” value: 1.32 for the first, 1.31 for the second.

Compared with U7A U8C G9U U10C U11C C13U, U7G U8G G9U U10C U11A C12U C13A is higher in “aptazyme ON/OFF ratio” value: 1.03 for the first, 1.35 for the second.

First: U7C U8G G9A U10C U11C C12G C13G
Second: U7A U8A G9C U11C C12A
The “aptazyme ON/OFF ratio” value of the first is higher: 1.14 for the first, 1.07 for the second.

Compared with U7G U8A U10G U11C C13U, U7A G9C U10G U11G C13A is lower in “aptazyme ON/OFF ratio” value: 1.5 for the first, 1.13 for the second.

First: U7A G9A U10A C12U C13G
Second: U7G U8A G9U U10C U11G C12U C13A
The “aptazyme ON/OFF ratio” value of the first is higher: 1.11 for the first, 1.09 for the second.

Going from U7A U8A U10G to U7A U8C U11A C12G C13U, the “aptazyme ON/OFF ratio” value falls from 1.52 to 1.15.

Going from U8G G9U U10G U11C C12G to U7C U8G G9U U10G U11G C13U, the “aptazyme ON/OFF ratio” value rises from 1.03 to 1.21.

First: U7G G9U U10A U11C C12U
Second: U7C U8A G9U U10A U11C C12U
The “aptazyme ON/OFF ratio” value of the first is higher: 1.32 for the first, 1.07 for the second.

Going from U7C U8G G9A U11A C12A C13G to U7C U8A G9C U10A U11G C13U, the “aptazyme ON/OFF ratio” value rises from 1.15 to 1.16.

First: U7C U10G C12G C13U
Second: U7G U8G G9U U10G C12U C13A
The “aptazyme ON/OFF ratio” value of the first is higher: 1.18 for the first, 1.17 for the second.

Compared with U8C G9C U10A U11G C12A C13U, G9C U10G U11A C12U is lower in “aptazyme ON/OFF ratio” value: 1.07 for the first, 1.04 for the second.

First: U7G U11G C12U C13A
Second: U7C U8G G9A U10A U11A C13G
The “aptazyme ON/OFF ratio” value of the first is higher: 1.14 for the first, 1.07 for the second.

First: U7G U8A U10G U11C C12G C13A
Second: G9C U10A C13G
The “aptazyme ON/OFF ratio” value of the first is higher: 1.4 for the first, 1.08 for the second.
